Key:
HLA-B*58:01 [1] = experiment: IEDB peptide-MHC binding, purified MHC/competitive/radioactivity; filed as Kd, often an IC50 or EC50 that approximates it; ≥ and ≤ were set here for values at or beyond the usual limits of such assays
HLA-B*57:01 [2] = experiment: as above
HLA-B*51:01 [3] = experiment: as above
HLA-B*54:01 = experiment: as above
HLA-B*53:01 = experiment: as above
HLA-B*07:02 [4] = experiment: as above
HLA-B*35:01 = experiment: as above
HLA-B*51:01 [5] = experiment: IEDB peptide-MHC binding, purified MHC/competitive/fluorescence; filed as Kd, often an IC50 or EC50 that approximates it; ≥ and ≤ were set here for values at or beyond the usual limits of such assays; details: source organism: Zaire ebolavirus
HLA-B*15:17 = experiment: as above; details: source organism: Zaire ebolavirus
HLA-B*27:03 = experiment: as above; details: source organism: Zaire ebolavirus
HLA-A*02:01 [6] = experiment: as above; details: source organism: Zaire ebolavirus
HLA-A*26:01 = experiment: as above; details: source organism: Zaire ebolavirus
HLA-A*69:01 = experiment: as above; details: source organism: Zaire ebolavirus
HLA-B*39:01 = experiment: IEDB peptide-MHC binding, purified MHC/direct/fluorescence; filed as Kd, often an IC50 or EC50 that approximates it; ≥ and ≤ were set here for values at or beyond the usual limits of such assays; details: source organism: Ebola virus - Gabon (1994-1997)
HLA-B*58:01 [7] = experiment: as above; details: source organism: Ebola virus - Gabon (1994-1997)
HLA-B*15:01 = experiment: as above; details: source organism: Ebola virus - Gabon (1994-1997)
HLA-B*44:02 = experiment: as above; details: source organism: Ebola virus - Gabon (1994-1997)
HLA-A*02:16 = experiment: as above; details: source organism: Zaire ebolavirus
HLA-A*03:01 [8] = experiment: as above; details: source organism: Ebola virus - Gabon (1994-1997)
HLA-A*01:01 = experiment: as above; details: source organism: Ebola virus - Gabon (1994-1997)
HLA-B*18:01 = experiment: as above; details: source organism: Ebola virus - Gabon (1994-1997)
HLA-B*57:01 [9] = experiment: as above; details: source organism: Ebola virus - Gabon (1994-1997)
HLA-A*31:01 [10] = experiment: as above; details: source organism: Ebola virus - Gabon (1994-1997)
HLA-B*40:01 = experiment: as above; details: source organism: Ebola virus - Gabon (1994-1997)
HLA-A*02:11 = experiment: as above; details: source organism: Zaire ebolavirus
HLA-A*02:03 [11] = experiment: as above; details: source organism: Zaire ebolavirus
HLA-B*48:01 = experiment: as above; details: source organism: Ebola virus - Gabon (1994-1997)
HLA-A*11:01 [12] = experiment: as above; details: source organism: Ebola virus - Gabon (1994-1997)
HLA-B*46:01 = experiment: as above; details: source organism: Ebola virus - Gabon (1994-1997)
HLA-B*07:02 [13] = experiment: as above; details: source organism: Ebola virus - Gabon (1994-1997)
HLA-A*02:12 = experiment: as above; details: source organism: Zaire ebolavirus
HLA-B*27:05 = experiment: as above; details: source organism: Ebola virus - Gabon (1994-1997)
HLA-A*02:19 = experiment: as above; details: source organism: Zaire ebolavirus
HLA-A*30:01 = experiment: IEDB peptide-MHC binding, purified MHC/competitive/radioactivity; filed as Kd, often an IC50 or EC50 that approximates it; ≥ and ≤ were set here for values at or beyond the usual limits of such assays; details: source organism: Dengue virus 4 Philippines/H241/1956
HLA-A*68:02 = experiment: as above; details: source organism: Vaccinia virus WR
HLA-A*02:06 = experiment: as above; details: source organism: Vaccinia virus WR
HLA-A*02:02 = experiment: as above; details: source organism: Vaccinia virus WR
HLA-A*03:01 [14] = experiment: as above; details: source organism: Vaccinia virus WR
HLA-A*31:01 [15] = experiment: as above; details: source organism: Vaccinia virus WR
HLA-A*02:01 [16] = experiment: as above; details: source organism: Vaccinia virus WR
HLA-A*02:03 [17] = experiment: as above; details: source organism: Vaccinia virus WR
HLA-A*11:01 [18] = experiment: as above; details: source organism: Vaccinia virus WR
HLA-A*33:01 = experiment: as above; details: source organism: Vaccinia virus WR
HLA-A*68:01 = experiment: as above; details: source organism: Vaccinia virus WR
[19] = source organism: Dengue virus 1 Brazil/97-11/1997
[20] = source organism: Dengue virus 2 Peru/IQT2913/1996
[21] = source organism: Vaccinia virus WR
[22] = source organism: Lymphocytic choriomeningitis virus (strain Armstrong)
[23] = source organism: SARS coronavirus Tor2
[24] = source organism: Dengue virus 3 Martinique/1243/1999
[25] = source organism: Dengue virus 4 Philippines/H241/1956
[26] = source organism: Dengue virus 1 Singapore/S275/1990

Sequence: KASQEGPLPE
- Kd (HLA-B*58:01 [1]; [19]): 669 nM
- Kd (HLA-B*57:01 [2]; [19]): 894 nM

Sequence: ESWEEIPYLG
- Kd (HLA-B*58:01 [1]; [20]): 90.3 nM
- Kd (HLA-B*57:01 [2]; [20]): 78.3 nM

Sequence: NPTKYIRWKL
- Kd (HLA-B*51:01 [3]; [21]): ≥ 59400 nM
- Kd (HLA-B*54:01; [21]): 5880 nM
- Kd (HLA-B*53:01; [21]): 2020 nM
- Kd (HLA-B*07:02 [4]; [21]): 27 nM
- Kd (HLA-B*35:01; [21]): 15000 nM

Sequence: MPSEDGAEAL
- Kd (HLA-B*51:01 [3]; [22]): ≥ 21500 nM
- Kd (HLA-B*54:01; [22]): 2850 nM
- Kd (HLA-B*53:01; [22]): 1730 nM
- Kd (HLA-B*07:02 [4]; [22]): 1360 nM
- Kd (HLA-B*35:01; [22]): 68.1 nM

Sequence: LPFYETLPEL
- Kd (HLA-B*51:01 [3]; [21]): 55.1 nM
- Kd (HLA-B*54:01; [21]): 29.7 nM
- Kd (HLA-B*53:01; [21]): 57 nM
- Kd (HLA-B*07:02 [4]; [21]): 79.8 nM
- Kd (HLA-B*35:01; [21]): 63.1 nM

Sequence: RPIFEWIEA
- Kd (HLA-B*51:01 [3]; [23]): 416 nM
- Kd (HLA-B*54:01; [23]): 100 nM
- Kd (HLA-B*53:01; [23]): 234 nM
- Kd (HLA-B*07:02 [4]; [23]): 378 nM
- Kd (HLA-B*35:01; [23]): 296 nM

Sequence: VASVNMVSRL
- Kd (HLA-B*58:01 [1]; [24]): 1050 nM
- Kd (HLA-B*57:01 [2]; [24]): 2240 nM

Sequence: VASVELPNSL
- Kd (HLA-B*58:01 [1]; [19]): 149 nM
- Kd (HLA-B*57:01 [2]; [19]): 4530 nM

Sequence: KPYTAGNKV
- Kd (HLA-B*51:01 [3]; [21]): 10.3 nM
- Kd (HLA-B*54:01; [21]): 29.5 nM
- Kd (HLA-B*53:01; [21]): ≥ 78200 nM
- Kd (HLA-B*07:02 [4]; [21]): 36.6 nM
- Kd (HLA-B*35:01; [21]): ≥ 77400 nM

Sequence: YFTFDLTAL
- Kd (HLA-B*51:01 [5]): ≥ 20000 nM
- Kd (HLA-B*15:17): ≥ 20000 nM
- Kd (HLA-B*27:03): ≥ 20000 nM
- Kd (HLA-A*02:01 [6]): ≥ 20000 nM
- Kd (HLA-A*26:01): ≥ 20000 nM
- Kd (HLA-A*69:01): ≥ 20000 nM
- Kd (HLA-B*39:01): ≥ 20000 nM
- Kd (HLA-B*58:01 [7]): ≥ 20000 nM
- Kd (HLA-B*15:01): ≥ 20000 nM
- Kd (HLA-B*44:02): ≥ 20000 nM
- Kd (HLA-A*02:16): ≥ 20000 nM
- Kd (HLA-A*03:01 [8]): ≥ 20000 nM
- Kd (HLA-A*01:01): ≥ 20000 nM
- Kd (HLA-B*18:01): ≥ 20000 nM
- Kd (HLA-B*57:01 [9]): ≥ 20000 nM
- Kd (HLA-A*31:01 [10]): ≥ 20000 nM
- Kd (HLA-B*40:01): ≥ 20000 nM
- Kd (HLA-A*02:11): ≥ 20000 nM
- Kd (HLA-A*02:03 [11]): ≥ 20000 nM
- Kd (HLA-B*48:01): ≥ 20000 nM
- Kd (HLA-A*11:01 [12]): ≥ 20000 nM
- Kd (HLA-B*46:01): ≥ 20000 nM
- Kd (HLA-B*07:02 [13]): ≥ 20000 nM
- Kd (HLA-A*02:12): ≥ 20000 nM
- Kd (HLA-B*27:05): ≥ 20000 nM
- Kd (HLA-A*02:19): ≥ 20000 nM

Sequence: GASKRSWPLN
- Kd (HLA-B*58:01 [1]; [25]): 763 nM
- Kd (HLA-B*57:01 [2]; [25]): 106 nM
- Kd (HLA-A*30:01): 257 nM

Sequence: VLPHLCLDYK
- Kd (HLA-A*68:02): ≥ 69800 nM
- Kd (HLA-A*02:06): ≥ 20200 nM
- Kd (HLA-B*51:01 [3]; [21]): ≥ 69600 nM
- Kd (HLA-A*02:02): ≥ 70000 nM
- Kd (HLA-A*03:01 [14]): 26.1 nM
- Kd (HLA-B*54:01; [21]): ≥ 69900 nM
- Kd (HLA-A*31:01 [15]): 1760 nM
- Kd (HLA-A*02:01 [16]): ≥ 69400 nM
- Kd (HLA-A*02:03 [17]): ≥ 70400 nM
- Kd (HLA-B*53:01; [21]): ≥ 69900 nM
- Kd (HLA-A*11:01 [18]): 194 nM
- Kd (HLA-B*07:02 [4]; [21]): ≥ 69600 nM
- Kd (HLA-A*33:01): 19300 nM
- Kd (HLA-B*35:01; [21]): ≥ 69900 nM
- Kd (HLA-A*68:01): 1320 nM

Sequence: ASSVLLWMAS
- Kd (HLA-B*58:01 [1]; [26]): 690 nM
- Kd (HLA-B*57:01 [2]; [26]): 15100 nM

Sequence: VPHSVFIASA
- Kd (HLA-B*51:01 [3]; [21]): ≥ 69600 nM
- Kd (HLA-B*54:01; [21]): 0.286 nM
- Kd (HLA-B*53:01; [21]): ≥ 69900 nM
- Kd (HLA-B*07:02 [4]; [21]): 528 nM
- Kd (HLA-B*35:01; [21]): 8490 nM

Sequence: SPETQQMII
- Kd (HLA-B*51:01 [3]; [21]): 105 nM
- Kd (HLA-B*54:01; [21]): 19500 nM
- Kd (HLA-B*53:01; [21]): 11.4 nM
- Kd (HLA-B*07:02 [4]; [21]): 408 nM
- Kd (HLA-B*35:01; [21]): 845 nM
